The test concerns the target T1, SARS CoV-2 S1S2 trimer (SARS-CoV-2, UniProt P0DTC2 14-1213).
T1 construct: also called trimeric S1S2; "wt" spike trimer
The experiment in a line: SPR. Particulars: both partners purified.

Where no end group is shown, it is not given here.

B1: CVRBDL-3 (peptide)
peptide: HDFWWEYDKKNDTWTRRRR-NH2
notes: also called CVRDBL-3; CVRBD-3; source: synthetic peptide; bought: CASLO
Regarding B1, the “stoichiometry N” value is 1.
